This is an account of results in PMC8445988, “Characterization of two β-galactosidases LacZ and WspA1 from Nostoc flagelliforme with focus on the latter’s central active region” (Scientific Reports, 2021).

Data set [1] deals with the molecule itself. Nature of the data set: SEC; gel filtration on an FPLC system (AKTA purifier), 20 mM Tris-HCl, 150 mM NaCl, 10% glycerol, pH 7.5; five molecular weight markers (200, 150, 66, 29, 12.4 kDa); absorbance at 280 nm. On the technique in general: In gel filtration, larger molecules generally elute earlier.
Substrate in the data set “purified protein”: O=[N+]([O-])c1ccccc1O[C@@H]1O[C@H](CO)[C@H](O)[C@H](O)[C@H]1O
Nature of the data set: purified protein.

Broadly, the stoichiometry N is the number of molecules, sites or subunits per partner or assembly. In general, Km refers to the concentration of substrate that gives half-maximal velocity.

B1: Nf-LacZ (β-galactosidase LacZ of Nostoc flagelliforme) (enzyme, UniProt A0A2K8T1B7 1-619, looked up)
chain: MKLLDIQKRKVESPSNRDNQRVSSFPEAGYPRPQLQRSHWLSLNGLWKFAFDNEGRCVQPGDIEGWTHHIQVPFAPESTKSGIGDTGFHPNCWYEREFETPEGDGRLLLHFGAVDYRARVWVNGQYMIEHEGGHTPFTLDITTVLNDTGITKVTVWAQDDPGDLAKPRGKQDWQLEPHSIWYPRTSGIWQTVWIERVGRTYIDSIRWSPDFERWEVGCYAAIAGDAPAGIQIKVKLSIGNTVLANDTYEVFNGEIGRRISLSDPGIDDYRNELLWSPEKPTLMDAHIELWHNNQLLDEAKSYTAMRTVGIQRDRFMLNGRPYYLRLVLDQGYWPDSLMTAPDDGALRRDVELTKAMGFNGVRKHQKIEDPRFLYWADKLGLLVWEEMPSAYRFTPKAVERTTREWAEVIRRDISHPCIVAWVTFNESWGVPNLVETAAHRNYVLAMYHLTKTLDPGRPVIANDGWESTDTDILAIHDYDTHPQRLGHRYGPEVKLSDLFDRKRPGGRILTLDNFPHQGQPVMLTEFGGIAYAPVDNPDADKAWGYERCSNISELEIKYATLLETINDIELFSGFCYTQFTDTFQEANGLLYADRTPKFPIEAIRAATLSGQGLCTPTSC
notes: β-galactosidase LacZ homolog of Nostoc flagelliforme, NCBI AUB41471, gene COO91_07519 (KEGG); 619 amino acid residues, calculated 70.8 kDa; The number of chains in the multimer is left open (at least a trimer or larger); also called COO91_07519; AUB41471
In the case of B1, the “stoichiometry N” value in data set [1] was at least 3. Moreover, the Km in “purified protein” was 500 µM.
